Measurements reported in the nanobody polyreactivity screen of Harvey et al. (2022).

Assay: yeast display, Sf9 membrane polyspecificity reagent, FACS + sequencing; frameworks hold sequencing errors
In short: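 Nanobodies from a synthetic yeast display library (Saccharomyces cerevisiae BJ5465), induced 36–48 hours with galactose, were stained 1 hour at 4 °C with 10% biotinylated, detergent-solubilized Sf9 membrane reagent, enriched on streptavidin microbeads, then FACS-sorted. Anti-HA (expression) and streptavidin (reagent binding) fluorescence set low and high (top ~1%) gates. Polyreactivity labels come from the gate of origin. Genes were colony-PCR amplified, MiSeq 2 × 250 sequenced and filtered by CDR length.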

Sequence	polyreactivity (PSR sort gate)
QVQLVESGGGLVQAGGSLRLSCAASGSIFPAIAKGWYRQAPGTERELVAAISVSGARTYYADSVKGRFTISRDNAKNTVYLQMNSLKPEDTAVYYCAARAAGSQHDYWGQGTQVTVSS	high polyreactivity
QVQLVESGGGLVQAGGSLRLSCAASGSTFQFYAMGWYRQAPGKERELVAAISVSGDRTYYADSVKGRFTISRDNAKNTVYLQMNSLKPEDTAVYYCAARYGPFKRRFDYWGQGTQVTVSS	high polyreactivity
QVQLQESGGGLVQAGGSLRLGCAASGNISDAGYMGWYRQAPGKEREFVAAIAAGSNTNYADSVKGRFTISRDNAKNTVYLQMNSLKPEVTAVFYCAVACYARVQYEYWGQGTQVTVNS	low polyreactivity
QVQLVDSGGGLVQAGGSLRLSCAASGFTFTQYAMAWYIQAPGKERELVASIRSGGSTKYADSVKGRFTISRDNAKNTVYLQMISLKPEDTAVYYCAKDRYHISFFYQMEFWGQGTQVTVSS	low polyreactivity
QVQLVESGGGLVQAGGSLRLSCAASGSTIVVNAMGWYRQAPGKERELVAAISSNGGSYYADSVKGRFTISRDNAKNTVYLQMNSLKPEDTAVYYCAADSREEGDYWGQGTQVTVSS	low polyreactivity
QVQLEESGGGLVQAGGSLRLSCAASGSTFYTNAMGWYRQAPGKERELVAAISASVGSTYYADSVKGRFTISRDNAKNTVYLQMNSLKPEDTAVYYCAADVWASRRYDYWGQGTQVTVSS	low polyreactivity
QVQLVESGGGLVQAGGSLRLSCAASGSIFVWYVMGWYRQAPGKERELVAVISRSGGSTYYADSVKGRFTISRDNAKNTVYLQMNSLKPEDTAVYYCAADSRSYYRDVDYWGQGTQVTVSS	low polyreactivity
QVQLVESGGGLVQAGGSLRLSCAASGRTFAYYTMGWYRQAPGKERELVDAISSRGGRTYYADSVKGRFTISRDNAKNTVYLQMNSLKPEDTAVYYCAAVSHGVYYQYRRRYYSWGQGTQVTVSS	high polyreactivity
QVQLVESGGGLVQAGGSLRLSCSASGRTFYRNAMGWYRQSPGKESEFVAVISVSGGSTYYADSVKGRFTISRDNAKNTVYLQMNSLKPEDTAVYYCAADEYYTFSCFELRRMDYWGQGTQVTVSS	low polyreactivity
QVQLVESGGVLVQAGGRLSLICAASGRTFARYVMGWYRKAPGKERELVAAINSGGTTYYADSVKGRFTISRDNAKNTVYLQMNSLKPEDTAVYYCNARRGHYAYDYWGQGTQVTVSS	high polyreactivity
QVQLVESGGGLVQAGGSLRLSCSASGRTFRWYTMGWYRQAPGKEREFVAAITWSGSSTDYADSVKGRFTISRDNAKNTVYFQMNSLKPEDTAVYYCAAENRRRRDDYWGQGTQVTVSS	high polyreactivity
QVQLVESGGGLVQAGGRLRLSCAASGRTFYGYAMGWYSPAPGKERELVAAITNGGRTYYADSVKGRFTISRDNAKNTVYLQMNSLKPEATAVYYCAAGPGRGRSTLGSYYWGQGTQVTVSS	high polyreactivity
QVQLVESGGGLVQAGGSLRLSCAASGRTFPGNAMGWYRQAPGKERELVATITWSSGRTHYADSVKGRFTISRDNAKNTVYLQMNSLKPEDTAVYYCAAKLIVAVGGFYYWGQGTQVTVSS	low polyreactivity
QVQLVESGGVLVQAGCSLRLSCAASGRTIPWYTMGWYRQAPRKERELVAAISNGGSTYYADSVKGRFTISRDNAKNTVYLQMNSLIPEDTAVYYCNSLVYKYIYNYDYWGQGTQVTVSS	high polyreactivity
QVQLVESGGGLVQAGGSLRLSCAASGSIFGWYAMGWYRQAPGKERELVATISSGGGNTYYADSVKGRFTISRDNAKNTVYLQMNSLKPEDTAVYYCAADRTFYGIRFDYWGQGTQVTVSS	low polyreactivity
QVQLVESGGGLVQAGGSLRLSCAASGFTFNGNAMGWYRQAPGKERELVAAISYSGGSTYYADSVKGRFTISRDNAKNTVYLQMNSLKPVDTAVFYCAADRTAYSVRAFTKDHSGHDYCGQGTQVTVSS	low polyreactivity
QVQLVESGGGLVQAGGSLRLSCAASGSIFDINAMGWYRQAPGKERELVAVITDSGSTYYADSVKGRFTISRDNAKNTVYLQMNSLKPEDTAVYYCAAESSLLFFLMDYWGQGTQVTVSS	low polyreactivity
QVQLVESGGGLVKAGGSLRLSCAASGRNFSQNVMGWYRQAPGKERELVADISRGGSTNYADSVKGRFTISRDNAKNSVFLQMNSLKPEDTAVYYCAARLFWYYYHPYYYWGQGTQVTVSS	high polyreactivity
QDQLVESRGGLVQAGGSLRVSCAASGLSFGYYAMGWYRQATGKERELVAAISSSGVNTYYADSVKGRFTISRDNPKNTVYLQMNSLIPEDTAVYYCNTVPKPWYSWKYAYDYWGQGTQVTVSS	high polyreactivity
QVQLVESGGGLVQAGGSLRLSCAASGTTFDSYAMGWYRQAPGKERELVPAITSSASTNYADSVKGRFTISRDNAKNTVYLQMNSLKPEDNAVYYCYADAYRLSFGGFTSDDEFVYWGLGTQVTVSS	high polyreactivity
QVQLVESGLGLVQAGGSLRISCAASGRIFYYNAMGWYRQAPGKERELVARIRRSGGRTYYADSVKGRFTISRDNAKNTVYLLMNSLKPADTAVYYCAARRQGRSGNGSWGQGTQVTVSW	high polyreactivity
QVQLVESGGGLVQAGGSLRLSCAASGFTFRWYTMGWYRQAPGKERELVASINWSTGTPYYADSVKGRFTISRDNAKNTVYLQMNSLNPEDTAVYYCNARFRGRVYDRFGYRGQGTQVTVSS	high polyreactivity

Sequence	polyreactivity (PSR sort gate)
QVQLVESGGGLVQAGGSLRLSCAASGSNFIWYVMGWYRQAPGKEREFVAAINWRGTSTYYADSVKGRFTISRDNAKNTVYLQMNSLKPEDTAVYYCAARVTYRGRAYDYWGQGTQVTVSS	high polyreactivity
QVQLVESGGGLVQAGGSLRLSCAASGSIFGDYAMGWYRQAPGTDRELVATITWIGGSTYYADSVKGRFTISRDNAKNTVYCQMNSLKPEDTAVYYCAATKYVDVKYYYWGQGTQVTVSS	low polyreactivity
QDQLVESGGGLVQAGGSLRLSCAASGRIFHGNAMGWYRQARGKEWELVAAISRRGGSTYSADSVKGRFTISRDNAKNTVYLQMNSLKPEDTAVYYCAAVWPYGSRGAPMDYWGQGTQVTVSS	high polyreactivity
QVQLLESGGGIVQAGGSLRLSCAASGRTFSRYVMGWYRQAPGKERELVATISRSGGSTFYADSVKGRFTISRDNAKNTVYLQMNSLKPEDTAVYYCNKKVQGYQVTYGYWGQGTQVTVSS	high polyreactivity
QVQLVESGGGLVQAGGSLRLSCAASGFTFGGNAMGWYRQAPGKEREFVAAITRSGGSTYYADSVKGRFTISRDNAKNTVYLQMHSLKPEDTAVYYCAARRSYPLGYDYWGQGTQVTVSS	high polyreactivity
QVLLVESGGGLVQAAGSLRLSCAASGSISIGYTMGWYIQAPGKERELVATISWSGGNTYYADSVKWRFTISRDNAKNTVYLQMNRLKPEDTAVYYCAAKSSTRGDYWGQGTQVTVSS	low polyreactivity
QVQLVESGGGLVQAGGSLRLSCAASGFNFRYNAMGWYRQAPGKERELVAGISGGGTHYADSVKGRFTISRDNAKNTVYLQMNSLKPEDTAVYYCARRGGYRRNTNFYYWGQGTQVTVSS	high polyreactivity
QVQLVESGGGLVQAGGSLRLSCAASGRIFTPYAMGWYRKAPGKERELGAVIRDGSTYYADSVKGRFTISRDNAKNTVYLQMNRLKPEDTAVYYCAAVNYYDQYGDYYWGQGTQVTVSS	low polyreactivity
QVQLVESGGGLVQAGGSLRISCAASGFIFPYNSMGWYREAPGKERELVARISSGGSTNYADSVKGRFTISRDNAKNTVYLQMHSLKPEDTAVYYCNARYRWGWTYLRYGSYDYWGQGTQVTVSS	high polyreactivity
QVQLVESGGGLVQAGGSLRLRCPASGFIFFWNTMGWYRQAPGKERELVAAISQSGDSTYYADSVKGRFTISRDSAKNTVYLQMNSLKPEDTAVYFWAADKKTITYRYDYWGLGTQVTVSS	low polyreactivity
QVQLVESGGGLDQAGGSLRLSCAASGSIFGYYAMGWYRQAPGKERELVAAISRSGGSTYYADSVKGRFTISRDNAKNTVYLQMNSLKPEDTAVYYCAARPPYRVGIVPLGRREYYWGQGTQVTVSS	high polyreactivity
QVQLVESGGGLVQAGGSLRLSCADSGRIFGTSAMGWYRQAPGKERELVATISYSSGRTYYADSVKGRFTISRDNAKNTVYLQMNSLKPEDTAVYYCARRRRSGSRQYYYWGQGTQVTVSS	high polyreactivity
QVQLVESGGGLVQAGGSLRLSCADSGSTFDSYAMGWSRQAPGKEMDMVAGITWGGGSTYYADSVKGRLTISRDNAKNTVYLQLNSLKPEDTAVYDCAAEEVYYWYTYYYWGEGTQVTVSS	high polyreactivity
QVQLVESGGGLVQAGGSLRLSCAASGIIFSDYAMGWYRQAPGKERELVAAISRNGGSTYYADSVKGRFTISRDNAKNTVYLQMNSLKPEDTAVYYCAATRRYRYNWGQGTQVTVSS	high polyreactivity
QVKLVESGRGLVHAGGSLRLSSAASANTFPPNARGCYIPAPGKERELVSAISRSGVSTYYADSVKGRFTISRDNANNTVYLQMNSLKPEDTAVYYCAAPLIYTPLKYHYWGQGTQVTVSS	low polyreactivity
QVQLVESVGGLVQAGGSLRLTCAASVFTFGYYAMGWYRQAPGKERELVAAITWSGGRTYYADSVKGRFTISRDNAKYTVYLQMNSLKPEDTAVYYCAVETLWQGSEYWGQGTQVTVSS	low polyreactivity
QVQLVESGGGLVQAGGSLRLSCAASGRTFFTYAMGWYRQAPGKERELVASITRSGVSTYYADSVKGRFTISRDNAKNTVYFQMNSLKPEDTAVYYCNTRYPYYWPIYGYWGQGTQVTVSS	high polyreactivity
QVQLVESGGGLVQAGGSLSLSCAASGSTFRGYAMGWDRQAPGKERELVADSTYYADSVKGRFTISRDNAKNTVYFQMNCLKPEDTAVYYCNADIAGWGSQDGTDDYWGLGTQVTVSS	high polyreactivity
QVQLVESGGGLVQAGGSLRLSCAASGRTFTSYAMGWYRQAPGKERELVAAISGSGSRTYYADSVKGRFTISRDNAKNTVYLQMNSLKPEDTAVYYCAVSYTTYYHRYYYWGQGTQVTVSS	high polyreactivity
QVQLEESAGRLVQARGSLRLSCAASGSTFGYNAMGWDSQAPGKARELVAALTRRGGRTYYADSVKGRFTISRDNAKNTVYLQMNSLKPEDTAVYYCAATSRGSGQRPGEAIIDYYYWGQGTQVTVSW	high polyreactivity
QVQLVESGGGLVQAGGSLRLSCAASGRMFHIYAMGWYRQAPGKERELVAGITTSGGSTYYADSVKGRFTISRDNAKNTVYLQMNSLKPEDTSVDYCARDGLWWCGLTKRWWEFYYWGQGTQVTVSS	low polyreactivity
